Measured values: US20240082398A1, “METHODS OF PREPARING AND EXPANDING TYPE I INNATE LYMPHOID CELLS AND THERAPEUTIC USES THEREOF” (City of Hope, priority 2021, published 2024)

System: IFN-γ^+ ILC1s
Assay: In vitro stimulation: IFN-γ production by ILC1s
Type: cell-based, mouse
Settings: neutralizing antibody 10 μg/ml with LSCs, or IL-7 100 ng/ml; 12 h, IL-12 plus IL-15
Text: ILC1s from human peripheral blood were identified by a surface stain including a live/dead cell viability cell staining kit (Invitrogen) and the following monoclonal antibodies: lineage (FITC-conjugated anti-CD3, anti-CD4, anti-CD8, anti-CD14, anti-CD15, anti-CD16, anti-CD19, anti-CD20, anti-CD33, anti-CD34, anti-CD203c, anti-FceRI), CD56 (FITC, AF700 or BV421 conjugated anti-CD56), CD127 (APC-conjugated anti-CD127), CRTH2 (PE-Cy7-conjugated anti-CRTH2), and c-Kit (PE-conjugated anti-c-Kit). ILC from mice were identified by a surface stain and the following monoclonal antibodies: lineage (PE-Cy7-conjugated anti-CD3 and anti-CD19), NK1.1 (BV510-conjugated anti-NK1.1), NKp46 (BV421, FITC or AF647-conjugated anti-NKp46), CD49b (BUV395 or PE-conjugated anti-CD49b), and CD49a (BV711-conjugated anti-CD49a). Human LSCs were identified by lineage (FITC-conjugate anti-CD2, anti-CD3, anti-CD4, anti-CD8, anti-CD14, anti-CD19, anti-CD20, anti-Mac-1, anti-CD56, and anti-CD235a), CD45 (BV510-conjugated anti-CD45), CD34 (BV510-conjugate anti-CD34), and CD38 (BV605 conjugated anti-CD38). Mouse LSCs were identified by lineage (PE-Cy7 conjugated anti-CD3, anti-CD19, anti-B220, anti-Ly6G/C, anti-Mac-1, anti-CD11b, and anti-Ter119), Sca-1 (PE-CF594 or BV510-conjugate anti-Sca-1), and c-Kit (BV711-conjugated anti-c-Kit). […]

B1: IL-7: recombinant mouse IL-7 (100 ng/ml) (protein)
chain: ECHIKDKEGKAYESVLMISIDELDKMTGTDSNCPNNEPNFFRKHVCDDTKEAAFLNRAARKLKQFLKMNISEEFNVHLLTVSQGTQTLVNCTSKEEKNVKEQKKNDACFLKRLLREIKTCWNKILKGSI
effect on production of IFN-γ in normal ILC1s: significantly increased
